Measured values taken from article doi:10.1101/2023.08.28.555081 (bioRxiv, 2023).

B1: Light-Dependent Protochlorophyllide Oxidoreductase, PORB isoform of A. thaliana, wild type (enzyme)
chain: QTAATSSPTVTKSVDGKKTLRKGNVVVTGASSGLGLATAKALAETGKWNVIMACRDFLKAERAAKSVGMPKDSYTVMHLDLASLDSVRQFVDNFRRTETPLDVLVCNAAVYFPTAKEPTYSAEGFELSVATNHLGHFLLARLLLDDLKKSDYPSKRLIIVGSITGNTNTLAGNVPPKANLGDLRGLAGGLNGLNSSAMIDGGDFDGAKAYKDSKVCNMLTMQEFHRRFHEETGVTFASLYPGCIASTGLFREHIPLFRALFPPFQKYITKGYVSETESGKRLAQVVSDPSLTKSGVYWSWNNASASFENQLSEEASDVEKARKVWEISEKLVGLA
B2: Light-Dependent Protochlorophyllide Oxidoreductase (AtPORB) Y177F_H319A double mutant (enzyme, A. thaliana)
chain: QTAATSSPTVTKSVDGKKTLRKGNVVVTGASSGLGLATAKALAETGKWNVIMACRDFLKAERAAKSVGMPKDSYTVMHLDLASLDSVRQFVDNFRRTETPLDVLVCNAAVFFPTAKEPTYSAEGFELSVATNHLGHFLLARLLLDDLKKSDYPSKRLIIVGSITGNTNTLAGNVPPKANLGDLRGLAGGLNGLNSSAMIDGGDFDGAKAYKDSKVCNMLTMQEFHRRFHEETGVTFASLYPGCIASTGLFREAIPLFRALFPPFQKYITKGYVSETESGKRLAQVVSDPSLTKSGVYWSWNNASASFENQLSEEASDVEKARKVWEISEKLVGLA

Biological target: the molecule itself
Assay: negative-stain electron microscopy

Protein | binding result
B1 | binds
B2 | binds
